Measurements: the supplement of paper PMC9170038

Tested on: MS2 coat protein
Experiment: apparent KD of MS2 coat protein; higher = weaker reporter binding
Details: Eterna round: R107
Summary of the method: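 Apparent KD was obtained for each design as the median of normalised binding-curve fits over its clusters. RNA switches transcribed on-chip from Illumina sequencing clusters were titrated with SNAP-549-labelled MS2 coat protein (twofold steps, 0.7 or 1.5 nM to 3 µM) in 100 mM Tris-HCl pH 7.5, 80 mM KCl, 4 mM MgCl2, without or with constant ligand.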

[1] = input ligand: theophylline 20 uM
[2] = input ligand: theophylline 2 mM
[3] = input ligand: tryptophan 2.4 mM

Sequence | apparent KD of MS2 coat protein (input ligand: arginine 13.2 mM) [nM] | apparent KD of MS2 coat protein [1] [nM] | apparent KD of MS2 coat protein [2] [nM] | apparent KD of MS2 coat protein (input ligand: none) [nM] | apparent KD of MS2 coat protein [3] [nM]
AGUUCCAGGUCGGCCGCCACUGGCGUGGCCGGUCCUCGGACUUACAUGAGGAUCACCCAUGUGAACAGGACCGGGACCGCAUGGG [Exclusion Tryptophan B GF 25] | 30 | 46 | 48.4 | – | –
AGCCCGGGAGCGGCCGCCACUGGAGGCUGAGCGCGACAUGAGGAUCACCCAUGUGUGCCCGGCGUUAGGACCGGGCUCGCGUGGU [#1 Same State - Tryptophan B Attempt #23 (HarryS)] | 28.4 | 75 | 79.2 | 29.4 | 32.2
UUGUUGUUUGGAAGGAGCGUGGAUGAGUGUGGACAUGAGGAUCACCCAUGUUGGAUGAUACCGCAGGUAGGUCGCCGGGUGGUGG [11.aD] | 89.7 | 162 | 300 | 164 | 75.9
GUUAUAUCAAAAGAUGUAACAGUGGGUGAACGAGGACCGGUACGGCCGCCACUCGGACAUGAGGAUCACCCAUGUCCAUGUGAAA [AstrosExyTryA#14] | 15.8 | 17.5 | 18.7 | – | –
AAGAACCAGACGGCCGCCACUGGCCAGACAGGGUUCAUGGAAACAUGAGGAUCACCCAUGUCUUCCAGGACCGGGUCUGAAGAGG [Esbiisin] | 8.61 | 9.86 | 9.33 | 8.56 | 11.3
AAUAUAAUAGACUCGUUUUAGUAUUUGGAACGAGGACCGGUACGGCCGCCACUCGUGAUUUACAUGAGGAUCACCCAUGUUAGCA [JR_SSTryptoA_Sub003] | 15.5 | 18.4 | 17.5 | – | –
AUUGCGAGUGAGUCGUGUAACGAUUCAGAUACCAGGCAUUUCGUUGUCCCUUGGCAGCUGUCUUACAUGAGGAUCACCCAUGUUA [#29 Exclusion-TheophyllineA] | 23.8 | 54.8 | – | – | 56.3
ACAUGAGGAUCACCCAUGUGAUGGCACGAUACCAGCUGAUCCCGUGGCCCUUGGCAGCGUCCGGUGUGGUCCGGCGGGUGGGACG [qqwmullin] | 30.1 | 97.8 | 25.9 | 21.5 | 21.2
ACACGAAGCUGAAGGAGCGUGGUAUAAUUUUUUACAUGAGGAUCACCCAUGUCUCAUUUUUCACAGGUAGGUCGCAGAUGCGUGA [JR_SSArginiB_Sub015] | 54.5 | 81.6 | 117 | 71.5 | 78.7
AUUAAUUGUCGUGAUACCAGACUUACAUGAGGAUCACCCAUGUUACUUAAGAUUUUUGUUGUCCCUUGGCAGCACUUUUUAAUUA [JR_Nu_ExcTheophyB_Sub024] | 24.5 | 33 | – | – | 23.3
AAGGGACAUGAGGAUCACCCAUGUACCGAAGGAGCGGCAGAGAUGCCAGGUAGGUCGCGGUACUUGCCGGGUCAUUCAUGCAAAA [Teanbe] | 16.4 | 23.5 | 21.9 | 18.8 | 21.8
ACGUUCGCGGUAUCCAACCGGUUGUACAAACGAGGACCGGUACGGCCGCCACUCGUGAUUGUACAUGAGGAUCACCCAUGUGGCA [theeternabot_exclusion_MS2_Trp_A_28] | 18.7 | 34.1 | 28.1 | – | –
AUAACAUGAGGAUCACCCAUGUAGAGUGAUACCAGACUACGUAAUGUCCCUUGGCAGCACAAGUAAAGUUACGAAUAUUGAUAGA [JR_SSTheophyA_Sub003] | 123 | 198 | – | – | 143
UUAAGAGGCUAUCAAAUUUGAUUUUGUGAUACCAGAAUAAUUUUAUUCCCUUGGCAGCAUGACAUGAGGAUCACCCAUGUGUCUU [SSTheo A #2] | 33.8 | 40.2 | – | – | 34.6
GCGGACAUGAGGAUCACCCAUGUAAAUCCUCGAGGACCGGUACGGCCGCCACUCGAACGAGUGGCGCGCGAGCGCGCGCUCGCGC [aBa] | 39.4 | 60.3 | 36.4 | 30.2 | 45.7
UUUGAUAGGACAGAUACCAGCGUGUUAUAAAACAUGAGGAUCACCCAUGUAGUGAUCAAGCGCCCUUGGCAGCUGGUUUGUUAGG [7.J] | 73.5 | 220 | – | – | 207
AGAGUCUAGUCGGCCGCCACUCAUGUCCGAAGGACAUGAGGAUCACCCAUGUACCAAUGGUACAUGAGGACCGGGACUGGACUCA [Omei Tryp B SS C v3] | 34.5 | 98.3 | 559 | 39.9 | 7.34
UGUAUGUGAUCUGAUACCAGUCCAACUGGUAAAUCAUGAGGAUCACCCAUGGAAAAUUGGGACCCUUGGCAGCAGAUCGCAUACU | 94.1 | 490 | 38.1 | 452 | 1070
AACAUGAGGAUCUUCCUUAAGUGAACUGAAGGAGCGCCAGAUAUGGCAGGUAGGUCGCAGCGAACAUGAGGAUCACCCAUGUUAA [Arg A Ex t3] | 38.1 | 33.1 | 56 | 29.4 | 53.7

Sequence | apparent KD of MS2 coat protein (input ligand: arginine 13.2 mM) [nM] | apparent KD of MS2 coat protein [1] [nM] | apparent KD of MS2 coat protein [2] [nM] | apparent KD of MS2 coat protein (input ligand: none) [nM] | apparent KD of MS2 coat protein [3] [nM]
GAUGAACUAUAUGAUACCAGACAACAUGAGGAUCACCCAUGUGAAAGUCGUCCUCUGCCUGUCCCUUGGCAGCGUAUAGUUUAUC [XTheo B #14] | 61.1 | 76.1 | – | – | 28.4
AGUCUAUGGAGAGAUACCAGUGAGAGCCAUAGACAUGAGGAUCACCCAUGUGACAUGGAUCACCCUUGGCAGCUCAACGAGCUCU [#20 Same State - Theophylline B] | 41 | 106 | – | – | 87.1
GUCCGACAUGAGGAUCACCCAUGUACUGAAGGAGCGGACAAAUGUCCAGGUAGGUCGCAGCUAUAUGGUGUGGACCGAUCCGGAC [Ustius] | 19 | 27.2 | 23.6 | 22 | 22.4
CUUAUAUAUACGGCCGCCACUUACUCAUGAGGUAACAACAUGAGGAUCACCCAUGUUUGAGGAUCAAGGACCGGGUAUAUAUAAG [AstrosSSTry#18] | 23.2 | 35.9 | 33.8 | – | –
AAGGACAUGAGGAUCACCCAUGUAGAGGAGCGAGGACCGGUACGGCCGCCACUCGGUGACAUUCGAUAAUGCCGAAUAAGACAUC [theeternabot_sameState_MS2_Trp_A_47] | 26.8 | 33.2 | 24.6 | – | –
AUACCUAUUGAGUCGUGUUUCUAUUCAGAUACCAGACUUUUCGUUGUCCCUUGGCAGCUGUUUUACAUGAGGAUCACCCAUGUUG [JR_ExcTheophyA_Sub006] | 14.6 | 18.3 | – | – | 15
UGUACAGACAUCGAAUUCCUAUGUGCUGAAGGAGCGUCGUUGACGACAGGUAGGUCGCAGUUAACAUGAGGAUCACCCAUGUACA [Arg A Ex t5] | 45.8 | 82.3 | 119 | 85.8 | 77.5
AAUAUAAGUGUAAUUAUAUUUAUAUCUGAUACCAGACUCUCAUGUGUCCCUUGGCAGCAGUUACAUGAGGAUCACCCAUGUAUUA [JR_Nu_SSTheophyA_Sub025] | 30.6 | 67.6 | – | – | 73.7
UCGCCCAGAAAGGAUUGCUGGGAUAUGGAAGGAGCGCUGAUGCCAGCAGGUAGGUCGCCAACGGACAUGAGGAUCACCCAUGUAC [Same State - Arginine A (Freestyle 6)] | 16.7 | 28.7 | 21.1 | 19.8 | 20.9
UACAUGAGGAUCACCCAUGUAUACAUGGAUACCAGCGACAAUGGGCGCCCUUGGCAGCUAGUGGAUGGAGGGUGGCCACAGUACU [Exclusion Theophyline A GF5] | 25.5 | 53.1 | – | – | 42.7
GUAUACAUGAGGAUCACCCAUGUACCAGAAGGAGCGCUGGAAACAGCAGGUAGGUCGCUGGUAGGUCCUCUAUCUAGACGUUCUU [EAA NP+V+V2 #6] | 40.5 | 167 | 157 | 193 | 110
AUCGUACCUGAUGAUACCAGCAAUUGCUCGUGACAUGAGGAUCACCCAUGUGACCAGUGAUGCCCUUGGCAGCAUGGUCGGUGCA [Same State - Theophylline B (Freestyle 22)] | 42.8 | 79.3 | – | – | 69.5
GCCGCGGCCGCGAUACACAUGGGUGUGUAACGAGGACCGGUACGGCCGCCACUCGAGAUGGCACAUGAGGAUCACCCAUGUGUGC [Exclusion Tryp A GF16] | 17.1 | 60.2 | 44.5 | 24.1 | 29.9
CACAUGAGGAUCACCCAUGUCUGAACUGAAGGAGCGCUAAACAAGGCAGGUAGGUCGCGGAAUCCCGUGUGCAUAUGCACACGGG [9.Z] | 24.1 | 24.1 | 20.4 | 15.6 | 18.9
UAACAUGAGGAUCACCCAUGUUUGAAGGAACGAGGACCGGUACGGCCGCCACUCGACGAGUGGAUGAGAAGUGGGAUUGUGUGCU [Same State Trp A GF8] | 14.4 | 17.5 | 17.3 | 13 | 15.2
AAUGUAUUCCACAUGAGGAUCACCCAUGUGCGAGGACCGGUACGGCCGCCACUCGGUGUUGGGAUCAGUUCUGAAUACAUUAAUG [XTryp A #24] | 19.1 | 19.2 | 20.5 | – | –
CUCUUGGCCGCAGUACGUUUAUAGACCUAUCGAGGACCGGUACGGCCGCCACUCGGUUAGUCACAUGAGGAUCACCCAUGUGUCC [theeternabot_exclusion_MS2_Trp_A_38] | 17 | 23 | 19.7 | – | –
AGAGCAUUGACGGCCGCCACUCAUGUCACAUGAGGAUCACCCAUGUGAUGGGUGAUAGCCCGGUCGAGGACCGGGUCAAUGCUCA [Omei Tryp SS B v5] | 14.3 | 29.7 | 20.6 | – | –
CAUAUAUAUAGAAGGAGCGACAUGAGGAUCACCCAUGUCUACCACGUCGAAAGACGCUCAUGUCAGGUAGGUCGCUAUAUAUAUG [Astros-Eli-mod2] | 56.2 | 154 | 198 | 115 | 147
